The results in this text go back to publication PMC6684798, “Structural basis for the target specificity of actin histidine methyltransferase SETD3” (Nature Communications, 2019).

The target in experiment [1] is T1, SETD3 N255A (Homo sapiens, UniProt Q86TU7, N256A).
T1 construct: GST (cleaved yes); made in house; host or cells: Escherichia coli BL21(DE3) CodonPlus
T1 sequence (Q86TU7 1-594 N256A): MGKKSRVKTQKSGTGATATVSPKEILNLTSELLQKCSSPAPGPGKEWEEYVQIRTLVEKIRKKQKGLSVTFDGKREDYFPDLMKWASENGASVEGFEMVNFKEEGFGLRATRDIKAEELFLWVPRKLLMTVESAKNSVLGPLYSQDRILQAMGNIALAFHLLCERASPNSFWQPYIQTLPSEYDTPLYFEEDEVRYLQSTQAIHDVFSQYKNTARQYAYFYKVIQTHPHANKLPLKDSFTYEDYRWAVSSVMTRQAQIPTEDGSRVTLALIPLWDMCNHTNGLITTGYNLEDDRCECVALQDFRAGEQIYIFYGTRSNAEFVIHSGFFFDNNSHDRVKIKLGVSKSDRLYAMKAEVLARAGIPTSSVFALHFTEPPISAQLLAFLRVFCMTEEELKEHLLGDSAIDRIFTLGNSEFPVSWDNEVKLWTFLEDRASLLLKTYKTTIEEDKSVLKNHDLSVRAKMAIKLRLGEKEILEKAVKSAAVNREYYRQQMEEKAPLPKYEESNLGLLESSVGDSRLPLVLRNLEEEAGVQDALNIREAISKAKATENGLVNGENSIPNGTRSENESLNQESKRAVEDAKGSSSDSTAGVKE
The experiment can be described thus: Steady-state kinetics of SETD3 N255A on K73(66–88) (Fig. 3c; pH 10.5, 37 °C, [N255A] = 90 nM, 40 µM SAM). The experiment is classed as biochemical. To be noted: relative to WT SETD3, Fig. 3c. Here is the method:
(§1) Fig. 3 Kinetics of SETD3 on H73 and K73 peptides. a Comparison of activities of three variants (WT, N255A, and N255V) on H73(66–80) peptide. The assays were performed at room temperature (~22 °C) and pH 8.0 using [WT] = 0.18 μM, [N255A] = 0.18 μM, and [N255V] = 0.72 μM. b Comparison of SETD3 WT activities on two K73 peptides (residues 66–80 and 66–88). The assays were performed at 37 °C and pH 10.5 using [WT] = 3 and 15 μM, respectively, for the long and short peptides. c Comparison of activities of three variants (N255A, N255V, and WT) on K73(66–88) peptide. The assays were performed at 37 °C and pH 10.5 using [N255A] = 90 nM, [N255V] = 0.72 μM and [WT] = 4 μM. Data represent the mean ± SD of N number of independent determinations (N = 3 for the WT and N = 2 for the mutants) performed in duplicate. […]
(§2) Recombinant human SETD3 (pXC2003) was expressed as a GST-fusion[22] in Escherichia coli BL21(DE3) CodonPlus^TM cells (Stratagene). […]
(§3) A reaction mixture contained 20 mM Tris/HCl (pH 8.0) or 20 mM glycine/NaOH (pH 10.5), 50 mM NaCl, 0.1 mg/ml BSA, 1 mM DTT, 0.18–15 µM SETD3 (as indicated in Fig. 3), 40 µM SAM and varying concentration of peptides. […] The dependence of the velocity of product formation per enzyme on substrate concentration was analyzed according to the Michaelis–Menten equation.

Experiment [2] has as its target T1, SETD3 N255A. The experiment can be described thus: MALDI-TOF analysis of K73(66–88) methylation by N255A (Fig. 3d). The experiment is classed as biochemical. To be noted: pH 10.5, 37 °C, 3 μM N255A, 10 µM peptide, 40 µM SAM. Here is the method: Fig. 3 Kinetics of SETD3 on H73 and K73 peptides. a Comparison of activities of three variants (WT, N255A, and N255V) on H73(66–80) peptide. The assays were performed at room temperature (~22 °C) and pH 8.0 using [WT] = 0.18 μM, [N255A] = 0.18 μM, and [N255V] = 0.72 μM. b Comparison of SETD3 WT activities on two K73 peptides (residues 66–80 and 66–88). The assays were performed at 37 °C and pH 10.5 using [WT] = 3 and 15 μM, respectively, for the long and short peptides. c Comparison of activities of three variants (N255A, N255V, and WT) on K73(66–88) peptide. The assays were performed at 37 °C and pH 10.5 using [N255A] = 90 nM, [N255V] = 0.72 μM and [WT] = 4 μM. Data represent the mean ± SD of N number of independent determinations (N = 3 for the WT and N = 2 for the mutants) performed in duplicate. Source data are provided as a Source Data file. d, e Mass spectrometry analysis of K73(66–88) methylation kinetic showing representative spectra at various time points for N255A variant (panel d) and SETD3 WT enzyme (panel e). The assays were performed at 37 °C and pH 10.5 using 3 μM for both N255A and WT. f In vitro methylation reactions with SETD3, indicated full-length actin proteins, and radiolabeled methyl donor (^3H-SAM). Right, Reactions were resolved by SDS–PAGE and activity was visualized by autoradiography. […] The first column head is 'SETD3', and the substrate peptide is printed only on the plot axis. / Panel b: the first column head is 'SETD3 (WT)', and the rows are K73 peptide substrates.
as §2
Actin K73 peptide (residues 66–88) was used as a substrate for SETD3 (Fig. 3d, e). […] We note that samples diluted into a 0.1% (v/v) TFA solution in water could not be detected by MALDI-TOF, thus the acetonitrile additive is necessary.

The test system of experiment [3] is SETD3 variants (WT, N255A, N255V). The experiment can be described thus: Comparison of activities of SETD3 variants (Fig. 3a, c). The experiment is classed as biochemical, human. To be noted: Fig. 3c, K73(66–88), pH 10.5, 37 °C. Here is the method:
as §1, §2, §3

Consider “K73(66–88): K73-containing actin H73K peptide, residues 66–88 (TLKYPIEKGIVTNWDDMEKIWHH; UniProt P60709 66-88, looked up, variant H73K)”, for which, in the experiment with SETD3 N255A [1], the “activity of N255A on K73 peptide” value was “significantly enhanced activity”. In addition, the figures for the K73 methylation product result in the experiment with SETD3 N255A [2] (10 min), in the experiment with SETD3 N255A [2] (30 min) and in the experiment with SETD3 N255A [2] (1 h) were “monomethyl lysine”, “dimethyl” and “complete conversion of unmodified substrate to trimethyl lysine”, respectively. Besides, the “order of activity of SETD3 variants on K73” value in experiment [3] is “N255A≫N255V>WT”.
